Tests used:
female mice (Balb/c) = experiment: Dextran Sodium Sulfate-induced ulcerative colitis model; format: in vivo
Protocol: The DSS model of colitis mimics some aspects of the human affection such as macrophage infiltration and up regulation of inflammatory cytokines (i.e. TNFα, IL-1p, IL-6) in the colon mucosa.
Ulcerative colitis (UC) was induced in female mice (Balb/c, 20-22 g, Elevage Janvier) by Dextran Sodium Sulfate (DSS 4%) administered in drinking water (oral route). The mice had free access to DSS during 7 days. Body weight was determined daily. The severity of the UC was assessed by a clinical score estimating the constituency of the stool (0=firm, 1=loose, 2=diarrhea) and the presence of blood (0=no blood, 1=occult blood, 2=gross rectal bleeding). Seven days after the induction of the disease, the animals were sacrificed. The length and the weight of the colon were determined and the ratio Weight/Length/100 g body weight was calculated. The spleen weight was also determined. Blood was sampled to determine serum amyloid protein (SAA) using a specific ELISA.
Test substances or vehicle (PBS/0.02% BSA) was administered at days 3, 4, 5 and 6 after the induction of the UC. Enbrel® (1 mg/kg, sc) was used as reference compound. Three studies were performed as per the following table:
In Study 3, the content of IL-1β in the colon was also measured.

LPS-induced TNFα release = experiment: LPS-induced TNFalpha release in mice (Example 5); format: in vivo, C3H mice
Protocol: C3H mice (Elevage Janvier) (8 week old), received E. Coli's LPS (O111:B4, Sigma, 0.3 mg/kg, ip) 15 minutes after the administration of the test molecules. LPS was solubilized in sterile saline. Dexamethasone (0.1 mg/kg, sc) was used as reference. 24 h later, the animals were sacrificed and the blood was sampled. Plasma levels of TNF-αwere determined in serum using an ELISA kit (R&D). Statistical analysis was determined with an ANOVA test followed by a post-test of Dunnett.

B1: sCD164-Fcm: SEQ ID NO: 18, sCD164 fused to an Fc part mutated in the Fc receptor and C1q binding regions (protein, listed as Homo sapiens)
chain: DKNTTQHPNVTTLAPISNVTSAPVTSLPLVTTPAPETCEGRNSCVSCFNVSVVNTTCFWIECKDESYCSHNSTVSDCQVGNTTDFCSVSTATPVPTANSTAKPTVQPSPSTTSKTVTTSGTTNNTVTPTSQPVRKSTFDAEPKSCDKTHTCPPCPAPEAEGAPSVFLFPPKPKDTLMISRTPEVTCVVVDVSHEDPEVKFNWYVDGVEVHNAKTKPREEQYNSTYRVVSVLTVLHQDWLNGKEYKCKVSNKALPSSIEKTISKAKGQPREPQVYTLPPSREEMTKNQVSLTCLVKGFYPSDIAVEWESNGQPENNYKTTPPVLDSDGSFFLYSKLTVDKSRWQQGNVFSCSVMHEALHNHYTQKSLSLSPGK
clinical score (female mice (Balb/c); Study 1, 1 mg/kg, ip, day 6): −23%
increase in serum amyloid protein A (female mice (Balb/c); Study 1, 3 mg/kg, ip): −36%
splenomegaly (female mice (Balb/c); Study 1, 3 mg/kg, ip): −27%
clinical score (female mice (Balb/c); Study 1, 3 mg/kg, ip, day 6): −32%
colon reduction, length (female mice (Balb/c); Study 1, 3 mg/kg, ip, days 3-6): −21%
body weight loss (female mice (Balb/c); Study 1, 0.3, 1, 3 mg/kg ip): not affected
ratio weight/length (colon) (female mice (Balb/c); Study 1, 0.3, 1, 3 mg/kg ip): not affected
colon reduction, length (female mice (Balb/c); Study 2, 0.3 mg/kg, sc): −13%
colon reduction, ratio weight/length (female mice (Balb/c); Study 2, 0.3 mg/kg, sc): −26%
colon reduction, length (female mice (Balb/c); Study 2, 1 mg/kg, sc): −18%
colon reduction, ratio weight/length (female mice (Balb/c); Study 2, 1 mg/kg, sc): −46%
body weight loss (female mice (Balb/c); Study 2, 1 mg/kg, sc, day 5 to day 7): reduced significantly
clinical score (female mice (Balb/c); Study 2, 1 mg/kg, sc, day 6): −22%
increase in serum amyloid protein A (female mice (Balb/c); Study 2, 3 mg/kg, sc): significantly decreased
splenomegaly (female mice (Balb/c); Study 2, 0.3, 1, 3 mg/kg sc): not improved
colon reduction, length (female mice (Balb/c); Study 3, 0.3 mg/kg, sc): −18%
colon reduction, ratio weight/length (female mice (Balb/c); Study 3, 0.3 mg/kg, sc): −19%
body weight loss (female mice (Balb/c); Study 3, 1 mg/kg, sc): did not have any effect
clinical score (female mice (Balb/c); Study 3, 1 mg/kg, sc): tended to improve
colon reduction, length (female mice (Balb/c); Study 3, 1 mg/kg, sc): −26%
colon reduction, ratio weight/length (female mice (Balb/c); Study 3, 1 mg/kg, sc): −25%
content of IL-1β in colon (female mice (Balb/c); Study 3, 1 mg/kg, sc): tended to improve
serum amyloid A protein (female mice (Balb/c); Study 3, 1 mg/kg, sc): did not have any effect
body weight loss (female mice (Balb/c); Study 3, 0.3 and 1 mg/kg, sc): did not have any effect
clinical score (female mice (Balb/c); Study 3, 0.3 and 1 mg/kg, sc): trended to improve
serum amyloid A protein (female mice (Balb/c); Study 3, 0.3 and 1 mg/kg, sc): did not have any effect
splenomegaly (female mice (Balb/c); Study 3, 0.3 and 1 mg/kg, sc): trended to improve
content of IL-1β in colon (female mice (Balb/c); Study 3, 0.3 and 1 mg/kg, sc (dose of the single value not stated)): −22%

B2: sCD164: SEQ ID NO: 15, mature full-length CD164 extracellular domain (exons 1 to 6), expressed with C-terminal hexa-histidine tag (protein)
chain: DKNTTQHPNVTTLAPISNVTSAPVTSLPLVTTPAPETCEGRNSCVSCFNVSVVNTTCFWIECKDESYCSHNSTVSDCQVGNTTDFCSVSTATPVPTANSTAKPTVQPSPSTTSKTVTTSGTTNNTVTPTSQPVRKSTFDA
modifications: homo sapiens
LPS-induced TNFα release (LPS-induced TNFα release; 1 mg/kg iv, 15 minutes prior to LPS, P<0.001): significantly decrease
TNFα release after LPS induction (LPS-induced TNFα release; previous experiments in this model): decrease TNFα release

— US7803910B2, “Soluble CD164 polypeptides” (Merck Serono S.A., priority 2005, dated 2010)
